Reference: article PMC3424545 (Nucleic Acids Research, 2012)

Biological target: T1, His6-tagged Mcm10 (human, UniProt Q7L590 1-875)
T1 sequence (looked up): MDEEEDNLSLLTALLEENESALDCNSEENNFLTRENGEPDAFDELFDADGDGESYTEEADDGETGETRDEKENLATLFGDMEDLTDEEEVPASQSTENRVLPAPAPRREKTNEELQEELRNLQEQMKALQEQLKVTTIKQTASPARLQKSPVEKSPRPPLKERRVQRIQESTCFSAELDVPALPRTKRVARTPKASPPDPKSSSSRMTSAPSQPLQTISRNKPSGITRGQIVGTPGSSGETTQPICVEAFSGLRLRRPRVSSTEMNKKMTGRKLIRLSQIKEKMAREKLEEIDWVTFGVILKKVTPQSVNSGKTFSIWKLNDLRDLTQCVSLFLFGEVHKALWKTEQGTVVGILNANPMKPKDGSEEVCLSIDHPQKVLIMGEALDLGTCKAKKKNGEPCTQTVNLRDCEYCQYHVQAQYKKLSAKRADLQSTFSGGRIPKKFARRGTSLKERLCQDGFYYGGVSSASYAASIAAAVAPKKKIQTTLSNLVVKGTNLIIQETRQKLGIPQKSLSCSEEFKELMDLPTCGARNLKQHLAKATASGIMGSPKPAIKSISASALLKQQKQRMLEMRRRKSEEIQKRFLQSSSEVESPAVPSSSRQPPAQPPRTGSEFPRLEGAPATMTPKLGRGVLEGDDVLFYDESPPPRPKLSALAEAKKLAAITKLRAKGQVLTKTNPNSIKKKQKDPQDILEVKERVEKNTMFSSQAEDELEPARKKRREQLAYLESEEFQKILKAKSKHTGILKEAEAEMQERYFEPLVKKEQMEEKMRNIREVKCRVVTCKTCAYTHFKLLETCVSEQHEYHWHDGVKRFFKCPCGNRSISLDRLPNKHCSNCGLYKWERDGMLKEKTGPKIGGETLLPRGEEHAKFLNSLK
Test: pull-down

B1: GST-tagged C-terminus VprBP (864-1507) (domain or fragment)
chain: not shown
B1: binds.
